From the Human Domainome abundance scans (Beltran et al. 2025)
± gives the uncertainty stated by the source.

B1: DnaJ homolog subfamily C member 5, residues 16 to 77; numbered along this chain, Q9H3Z4 (parent)
chain: LYHVLGLDKNATSDDIKKSYRKLALKYHPDKNPDNPEAADKFKEINNAHAILTDATKRNIYD

Variants of: B1
Assay: abundance fitness (aPCA) (normalised: wild type 0, dead -1); higher = more abundant; growth selection in yeast, the domain comes from the species named
Conditions: Homo sapiens

| Variant | abundance fitness |
| --- | --- |
| R21A | 0.379 ± 0.48 |
| L23S | -0.423 ± 0.11 |
| L23N | -0.052 ± 0.21 |
| L23P | -0.438 ± 0.14 |
| L23I | -0.736 ± 0.47 |
| L23Q | -0.334 ± 0.1 |
| L23K | -0.247 ± 0.11 |
| L23V | -0.525 ± 0.076 |
| L23E | -0.067 ± 0.12 |
| L23G | -0.308 ± 0.075 |
| L23M | -0.209 ± 0.12 |
| L23Y | -0.403 ± 0.17 |
| L23F | -0.536 ± 0.17 |
| L23W | -0.423 ± 0.084 |
| L23D | -0.129 ± 0.15 |
| L23A | -0.454 ± 0.11 |
| L23H | -1.2 ± 0.41 |
| S19P | -0.516 ± 0.052 |
| S19Y | -0.299 ± 0.2 |
| S19H | -0.333 ± 0.27 |
| S19E | -0.091 ± 0.088 |
| S19K | -0.391 ± 0.11 |
| S19T | -0.106 ± 0.12 |
| S19F | -0.88 ± 0.16 |

| Variant | abundance fitness |
| --- | --- |
| S19A | 0.02 ± 0.078 |
| S19R | -0.317 ± 0.051 |
| S19I | -0.762 ± 0.4 |
| S19Q | 0.042 ± 0.12 |
| S19G | -0.3 ± 0.065 |
| S19V | -0.187 ± 0.067 |
| S19W | -0.813 ± 0.075 |
| S19C | -0.088 ± 0.12 |
| S19D | -0.485 ± 0.19 |
| Y20H | 0.109 ± 0.25 |
| Y20V | -0.28 ± 0.055 |
| Y20F | 0.191 ± 0.12 |
| Y20K | -0.27 ± 0.14 |
| Y20D | -0.053 ± 0.12 |
| Y20G | -0.189 ± 0.071 |
| Y20S | -0.086 ± 0.068 |
| Y20R | -0.148 ± 0.055 |
| Y20T | -0.236 ± 0.072 |
| Y20W | 0.329 ± 0.075 |
| Y20M | -0.414 ± 0.089 |
| Y20P | -0.093 ± 0.075 |
| Y20I | -0.603 ± 0.29 |
| Y20C | -0.182 ± 0.091 |
| Y20L | -0.505 ± 0.065 |

| Variant | abundance fitness |
| --- | --- |
| Y20Q | 0.015 ± 0.13 |
| Y20E | 0.2 ± 0.071 |
| K22A | 0.117 ± 0.072 |
| K22Y | -0.246 ± 0.14 |
| K22P | -0.266 ± 0.12 |
| K22Q | 0.217 ± 0.11 |
| K22W | -0.339 ± 0.094 |
| K22H | 0.169 ± 0.24 |
| K22E | 0.249 ± 0.11 |
| K22S | 0.166 ± 0.099 |
| K22N | -0.188 ± 0.32 |
| K22G | 0.045 ± 0.078 |
| K22R | 0.041 ± 0.075 |
| K22F | -0.16 ± 0.17 |
| K22C | -0.19 ± 0.13 |
| K22L | 0.039 ± 0.082 |
| K22M | 0.32 ± 0.12 |
| K22I | -0.179 ± 0.18 |
| K22V | 0.168 ± 0.086 |
| H28R | -0.194 ± 0.17 |
| H28V | -0.459 ± 0.17 |
| H28E | 0.179 ± 0.29 |
| H28C | -0.29 ± 0.29 |
| H28G | -0.037 ± 0.12 |

| Variant | abundance fitness |
| --- | --- |
| H28S | 0.219 ± 0.15 |
| H28W | -0.474 ± 0.35 |
| H28F | -0.541 ± 0.28 |
| H28D | 0.062 ± 0.16 |
| H28Q | 0.34 ± 0.34 |
| H28K | 0.134 ± 0.2 |
| H28L | -0.536 ± 0.16 |
| H28A | -0.06 ± 0.26 |
| K18W | -0.226 ± 0.091 |
| K18I | -0.005 ± 0.13 |
| K18S | 0.04 ± 0.07 |
| K18L | -0.157 ± 0.067 |
| K18T | -0.025 ± 0.1 |
| K18V | -0.098 ± 0.069 |
| K18M | 0.06 ± 0.09 |
| K18P | -0.623 ± 0.086 |
| K18N | -0.34 ± 0.18 |
| K18R | -0.13 ± 0.062 |
| K18F | 0.117 ± 0.21 |
| K18Y | -0.333 ± 0.19 |
| K18D | -0.062 ± 0.19 |
| K18E | 0.11 ± 0.086 |
| K18Q | -0.104 ± 0.11 |
| K18C | -0.101 ± 0.1 |

| Variant | abundance fitness |
| --- | --- |
| Y27S | -0.21 ± 0.083 |
| Y27I | -0.715 ± 0.22 |
| Y27A | -0.344 ± 0.1 |
| Y27D | -0.316 ± 0.12 |
| Y27F | 0.185 ± 0.14 |
| Y27H | 0.185 ± 0.24 |
| Y27W | 0.231 ± 0.099 |
| Y27G | -0.27 ± 0.077 |
| Y27K | -0.379 ± 0.12 |
| Y27V | -0.571 ± 0.095 |
| Y27C | -0.239 ± 0.19 |
| Y27T | -0.157 ± 0.16 |
| Y27N | -0.83 ± 0.36 |
| Y27M | -0.196 ± 0.12 |
| Y27P | -0.61 ± 0.16 |
| Y27E | -0.07 ± 0.091 |
| Y27L | -0.326 ± 0.062 |
| Y27R | -0.543 ± 0.079 |
| L25R | -0.069 ± 0.067 |
| L25N | -0.073 ± 0.11 |
| L25M | -0.101 ± 0.078 |
| L25G | -0.293 ± 0.064 |
| L25K | -0.159 ± 0.22 |
| L25T | -0.025 ± 0.096 |

| Variant | abundance fitness |
| --- | --- |
| L25W | -0.346 ± 0.088 |
| L25D | 0.17 ± 0.089 |
| L25C | -0.102 ± 0.11 |
| L25Y | -0.299 ± 0.12 |
| L25E | 0.321 ± 0.11 |
| L25A | 0.039 ± 0.066 |
| L25S | -0.377 ± 0.08 |
| L25Q | 0.024 ± 0.11 |
| L25H | -0.442 ± 0.23 |
| L25V | -0.007 ± 0.065 |
| L25F | -0.068 ± 0.085 |
| L25P | -0.21 ± 0.095 |
| K26G | -0.415 ± 0.079 |
| K26V | -0.13 ± 0.06 |
| K26D | -0.12 ± 0.14 |
| K26Q | 0.032 ± 0.11 |
| K26F | -0.385 ± 0.13 |
| K26W | -0.477 ± 0.094 |
| K26N | -0.358 ± 0.11 |
| K26H | -0.239 ± 0.15 |
| K26I | 0.244 ± 0.12 |
| K26A | -0.081 ± 0.065 |
| K26P | -0.264 ± 0.13 |
| K26T | -0.189 ± 0.11 |

| Variant | abundance fitness |
| --- | --- |
| K26C | -0.318 ± 0.16 |
| K26S | -0.211 ± 0.079 |
| K26M | 0.021 ± 0.083 |
| K26R | -0.214 ± 0.084 |
| K26L | -0.075 ± 0.065 |
| K26E | 0.155 ± 0.08 |
| A24S | 0.044 ± 0.058 |
| A24E | 0.028 ± 0.099 |
| A24K | -0.034 ± 0.057 |
| A24V | 0.126 ± 0.068 |
| A24R | -0.041 ± 0.059 |
| A24D | -0.552 ± 0.15 |
| A24I | 0.086 ± 0.096 |
| A24F | 0.213 ± 0.1 |
| A24M | -0.028 ± 0.12 |
| A24C | 0.159 ± 0.074 |
| A24Q | -0.093 ± 0.076 |
| A24W | 0.245 ± 0.084 |
| A24Y | 0.208 ± 0.091 |
| A24L | -0.095 ± 0.058 |
| A24P | -0.449 ± 0.1 |
| A24T | 0.002 ± 0.064 |
| A24G | -0.377 ± 0.075 |
